Results published in patent US11278600B2, “Human alpha-galactosidase variants” (Codexis, Inc., priority 2014, dated 2022).
Numbering of substitutions follows the chain as printed.

B1: 44 (protein)
chain: LDNGLARTPTMGWLHWERFMCNLDCQEEPDSCISEKLFMEMAELMVSEGWKDAGYEYLCIDDCWMAPQRDSEGRLQADPQRFPHGIRQLANYVHSKGLKLGIYADVGNKTCAGFPGSFGYYDIDAQTFADWGVDLLKFDGCYCDSLENLADGYKHMSLALNRTGRSIVYSCEWPLYMWPFQKPNYTEIRQYCNHWRNFADIDDSWKSIKSILDWTSFNQERIVDVAGPGGWNDPDMLVIGNFGLSWNQQVTQMALWAIMAAPLFMSNDLRHISPQAKALLQDKDVIAINQDPLGKQGYQLRQGDNFEVWERPLSGLAWAVAMINRQEIGGPRSYTIAVASLGKGVACNPACFITQLLPVKRKLGFYEWTSRLRSHINPTGTVLLQLKNTMQMSKDLLL
modifications: Synthetic Polypeptide sequence of Variant No. 44 of mature Human GLA
B2: 51 (protein)
chain: B1 chain with F198S, K387E
modifications: Synthetic Polypeptide sequence of Variant No. 51 of mature Human GLA
B3: 57 (protein)
chain: B1 chain with F365K, K387E
modifications: Synthetic Polypeptide sequence of Variant No. 57 of mature Human GLA
B4: 59 (protein)
chain: B1 chain with F365R, K387E
modifications: Synthetic Polypeptide sequence of Variant No. 59 of mature Human GLA
B5: 52 (protein)
chain: B1 chain with F217D, K387E
modifications: Synthetic Polypeptide sequence of Variant No. 52 of mature Human GLA
B6: 58 (protein)
chain: B1 chain with F365L, K387E
modifications: Synthetic Polypeptide sequence of Variant No. 58 of mature Human GLA
B7: 46 (protein)
chain: B1 chain with K387R
modifications: Synthetic Polypeptide sequence of Variant No. 46 of mature Human GLA
B8: 47 (protein)
chain: B1 chain with K387T
modifications: Synthetic Polypeptide sequence of Variant No. 47 of mature Human GLA
B9: 54 (protein)
chain: B1 chain with F352I, K387E
modifications: Synthetic Polypeptide sequence of Variant No. 54 of mature Human GLA
B10: 55 (protein)
chain: B1 chain with F352V, F365I, K387E
modifications: Synthetic Polypeptide sequence of Variant No. 55 of mature Human GLA
B11: 45 (protein)
chain: B1 chain with K387Q
modifications: Synthetic Polypeptide sequence of Variant No. 45 of mature Human GLA
B12: 48 (protein)
chain: B1 chain with E40D, K387E
modifications: Synthetic Polypeptide sequence of Variant No. 48 of mature Human GLA
B13: 53 (protein)
chain: B1 chain with F217R, K387E
modifications: Synthetic Polypeptide sequence of Variant No. 53 of mature Human GLA
B14: 49 (protein)
chain: B1 chain with F180R, K387E
modifications: Synthetic Polypeptide sequence of Variant No. 49 of mature Human GLA
B15: 56 (protein)
chain: B1 chain with F365I, K387E
modifications: Synthetic Polypeptide sequence of Variant No. 56 of mature Human GLA
B16: 50 (protein)
chain: B1 chain with F180S, K387E
modifications: Synthetic Polypeptide sequence of Variant No. 50 of mature Human GLA

Experiment: HTP-analysis of yeast culture supernatants, no challenge (MUGal hydrolysis)
Assay type: biochemical
Details: activity of the variant/activity of WT GLA (SEQ ID NO: 5), yeast supernatant
How it was run: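 GLA variants were expressed in INVSc1 yeast grown in SD-Ura broth with glucose at 30° C., and culture supernatants were collected after 66-84 h. Supernatant was mixed with McIlvaine buffer pH 4.8 and MUGal (2 mM stock) in 50 mM citrate, 200 mM KCl, pH 4.6, incubated at 37° C. for 30-180 minutes, then quenched with sodium carbonate.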

Molecule | Relative Activity of GLA Variants After No Challenge (NC)
B1 | + (+ = 0.5 to 1.5 relative activity over WT GLA (SEQ ID NO: 5))
B2 | ++ (++ = >1.5 to 2.5 relative activity over WT GLA (SEQ ID NO: 5))
B3 | ++ (++ = >1.5 to 2.5 relative activity over WT GLA (SEQ ID NO: 5))
B4 | + (+ = 0.5 to 1.5 relative activity over WT GLA (SEQ ID NO: 5))
B5 | ++ (++ = >1.5 to 2.5 relative activity over WT GLA (SEQ ID NO: 5))
B6 | ++ (++ = >1.5 to 2.5 relative activity over WT GLA (SEQ ID NO: 5))
B7 | + (+ = 0.5 to 1.5 relative activity over WT GLA (SEQ ID NO: 5))
B8 | + (+ = 0.5 to 1.5 relative activity over WT GLA (SEQ ID NO: 5))
B9 | + (+ = 0.5 to 1.5 relative activity over WT GLA (SEQ ID NO: 5))
B10 | ++ (++ = >1.5 to 2.5 relative activity over WT GLA (SEQ ID NO: 5))
B11 | ++ (++ = >1.5 to 2.5 relative activity over WT GLA (SEQ ID NO: 5))
B12 | + (+ = 0.5 to 1.5 relative activity over WT GLA (SEQ ID NO: 5))
B13 | + (+ = 0.5 to 1.5 relative activity over WT GLA (SEQ ID NO: 5))
B14 | + (+ = 0.5 to 1.5 relative activity over WT GLA (SEQ ID NO: 5))
B15 | ++ (++ = >1.5 to 2.5 relative activity over WT GLA (SEQ ID NO: 5))
B16 | ++ (++ = >1.5 to 2.5 relative activity over WT GLA (SEQ ID NO: 5))

Experiment: HTP-analysis of supernatants pretreated with acid (MUGal hydrolysis)
Assay type: biochemical
Details: challenge at pH 4.2; activity of the variant/activity of WT GLA (SEQ ID NO: 5); yeast supernatant
How it was run: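 MUGal hydrolysis was tracked by fluorescence (Ex 355 nm, Em 448 nm) after a 30-180 min reaction at 37° C. in pH 4.8 McIlvaine/citrate buffer, stopped with 1 M sodium carbonate. Beforehand, yeast (INVSc1) culture supernatants carrying GLA variants were held 1-3 h at 37° C. in acidic McIlvaine buffer, pH 3.3-4.3.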

Molecule | Relative Activity of GLA Variants After Challenge at pH 4.2
B1 | ++ (++ = >1.5 to 2.5 relative activity over WT GLA (SEQ ID NO: 5))
B2 | ++ (++ = >1.5 to 2.5 relative activity over WT GLA (SEQ ID NO: 5))
B3 | ++ (++ = >1.5 to 2.5 relative activity over WT GLA (SEQ ID NO: 5))
B4 | + (+ = 0.5 to 1.5 relative activity over WT GLA (SEQ ID NO: 5))
B5 | + (+ = 0.5 to 1.5 relative activity over WT GLA (SEQ ID NO: 5))
B6 | ++ (++ = >1.5 to 2.5 relative activity over WT GLA (SEQ ID NO: 5))
B7 | +++ (+++ = >2.5 relative activity over WT GLA (SEQ ID NO: 5))
B8 | ++ (++ = >1.5 to 2.5 relative activity over WT GLA (SEQ ID NO: 5))
B9 | + (+ = 0.5 to 1.5 relative activity over WT GLA (SEQ ID NO: 5))
B10 | +++ (+++ = >2.5 relative activity over WT GLA (SEQ ID NO: 5))
B11 | ++ (++ = >1.5 to 2.5 relative activity over WT GLA (SEQ ID NO: 5))
B12 | + (+ = 0.5 to 1.5 relative activity over WT GLA (SEQ ID NO: 5))
B13 | ++ (++ = >1.5 to 2.5 relative activity over WT GLA (SEQ ID NO: 5))
B14 | + (+ = 0.5 to 1.5 relative activity over WT GLA (SEQ ID NO: 5))
B15 | ++ (++ = >1.5 to 2.5 relative activity over WT GLA (SEQ ID NO: 5))
B16 | ++ (++ = >1.5 to 2.5 relative activity over WT GLA (SEQ ID NO: 5))

Experiment: HTP-analysis of supernatants pretreated with base (MUGal hydrolysis)
Assay type: biochemical
Details: challenge at pH 7.1; activity of the variant/activity of WT GLA (SEQ ID NO: 5); yeast supernatant
How it was run: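 Fluorescence of released 4-MU (Ex 355 nm, Em 448 nm) after carbonate quench reports MUGal hydrolysis by GLA variants secreted from INVSc1 yeast. Before the acidic (pH 4.3-4.8) 30-180 min reaction at 37° C, supernatants had been pre-incubated at pH 7.0-9.7 for 1-18 h at 37° C.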

Molecule | Relative Activity of GLA Variants After Challenge at pH 7.1
B1 | + (+ = 0.5 to 1.5 relative activity over WT GLA (SEQ ID NO: 5))
B2 | + (+ = 0.5 to 1.5 relative activity over WT GLA (SEQ ID NO: 5))
B3 | ++ (++ = >1.5 to 2.5 relative activity over WT GLA (SEQ ID NO: 5))
B4 | + (+ = 0.5 to 1.5 relative activity over WT GLA (SEQ ID NO: 5))
B5 | ++ (++ = >1.5 to 2.5 relative activity over WT GLA (SEQ ID NO: 5))
B6 | ++ (++ = >1.5 to 2.5 relative activity over WT GLA (SEQ ID NO: 5))
B7 | + (+ = 0.5 to 1.5 relative activity over WT GLA (SEQ ID NO: 5))
B8 | + (+ = 0.5 to 1.5 relative activity over WT GLA (SEQ ID NO: 5))
B9 | + (+ = 0.5 to 1.5 relative activity over WT GLA (SEQ ID NO: 5))
B10 | ++ (++ = >1.5 to 2.5 relative activity over WT GLA (SEQ ID NO: 5))
B11 | ++ (++ = >1.5 to 2.5 relative activity over WT GLA (SEQ ID NO: 5))
B12 | + (+ = 0.5 to 1.5 relative activity over WT GLA (SEQ ID NO: 5))
B13 | ++ (++ = >1.5 to 2.5 relative activity over WT GLA (SEQ ID NO: 5))
B14 | + (+ = 0.5 to 1.5 relative activity over WT GLA (SEQ ID NO: 5))
B15 | ++ (++ = >1.5 to 2.5 relative activity over WT GLA (SEQ ID NO: 5))
B16 | ++ (++ = >1.5 to 2.5 relative activity over WT GLA (SEQ ID NO: 5))
